According to publication PMC10518340 (Signal Transduction and Targeted Therapy, 2023):

Target: T1, recombinant extracellular domain of IFNAR1 (ECD-IFNAR1) (UniProt P17181 28-436, RED-tris-NTA 2nd Generation dye on the His-tag (MST only))
T1 construct: signal peptide in the construct; extracellular domain of IFNAR1, residues 1-436 as printed; the secreted product lacks the signal peptide; source: bought: Sino Biological (13222-H08H)
T1 sequence: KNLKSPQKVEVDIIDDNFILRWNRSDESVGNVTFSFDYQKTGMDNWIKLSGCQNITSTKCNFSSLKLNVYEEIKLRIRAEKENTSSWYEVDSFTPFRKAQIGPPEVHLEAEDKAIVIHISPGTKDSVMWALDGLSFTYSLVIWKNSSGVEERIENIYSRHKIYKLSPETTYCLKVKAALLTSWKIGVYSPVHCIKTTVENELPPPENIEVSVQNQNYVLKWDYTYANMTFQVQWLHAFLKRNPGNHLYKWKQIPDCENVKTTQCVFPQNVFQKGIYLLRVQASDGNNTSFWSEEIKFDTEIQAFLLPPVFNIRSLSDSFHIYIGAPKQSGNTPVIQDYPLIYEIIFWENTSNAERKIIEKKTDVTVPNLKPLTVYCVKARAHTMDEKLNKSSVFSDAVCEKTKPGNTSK
Assay: MST; His-tagged ECD-IFNAR1 labelled with RED-tris-NTA 2nd Generation dye for 30 min, mixed with serially diluted LRPAP1 peptides; Monolith NT.115 capillaries; S/N above 5.0 taken as valid binding
Conditions: both partners purified

B1: RAPD1P1, peptide from the N-terminal of LRPAP1 (residues 35-53) (peptide)
peptide: YSREKNQPKPSPKRESGEE
notes: LRPAP1 residues 35-53; also called PAPD1P1; source: synthetic peptide (GenScript Biotech, purity 95%)
  Kd: 11.3 nM
